# Source: patent US20140127724A1
# Several values for one entry are separate records, joined by “and”; a condition that tells them apart may be missing. Equal entries are not always repeated.
# Tests used:
# [1] = target: mouse fragile X mental retardation protein (FMRP) (mouse) (UniProt P35922); assay: Luminex capture immunoassay, 5 ug mouse brain extract
# [2] = target: mouse fragile X mental retardation protein (FMRP) (mouse) (UniProt P35922); assay: Luminex capture immunoassay, 10 ug mouse brain extract
# [3] = target: mouse fragile X mental retardation protein (FMRP) (mouse) (UniProt P35922); assay: Luminex capture immunoassay, 20 ug mouse brain extract
# [4] = target: mouse fragile X mental retardation protein (FMRP) (mouse) (UniProt P35922); assay: Luminex capture immunoassay, 40 ug mouse brain extract
# [5] = target: mouse fragile X mental retardation protein (FMRP) (mouse) (UniProt P35922); assay: Luminex capture immunoassay, 80 ug mouse brain extract
# [6] = target: mouse fragile X mental retardation protein (FMRP) (mouse) (UniProt P35922); assay: Luminex capture immunoassay, 2.5 ug mouse brain extract
# [7] = target: mouse fragile X mental retardation protein (FMRP) (mouse) (UniProt P35922); assay: Luminex capture immunoassay, 1.25 ug mouse brain extract
# [8] = target: human fragile X mental retardation protein (FMRP) (human) (UniProt Q06787); assay: Luminex capture immunoassay, 5 ug human lymphoblastoid control extract
# [9] = target: human fragile X mental retardation protein (FMRP) (human) (UniProt Q06787); assay: Luminex capture immunoassay, 10 ug human lymphoblastoid control extract
# [10] = target: human fragile X mental retardation protein (FMRP) (human) (UniProt Q06787); assay: Luminex capture immunoassay, 20 ug human lymphoblastoid control extract
# [11] = target: human fragile X mental retardation protein (FMRP) (human) (UniProt Q06787); assay: Luminex capture immunoassay, 40 ug human lymphoblastoid control extract
# [12] = target: human fragile X mental retardation protein (FMRP) (human) (UniProt Q06787); assay: Luminex capture immunoassay, 80 ug human lymphoblastoid control extract
# [13] = target: human fragile X mental retardation protein (FMRP) (human) (UniProt Q06787); assay: Luminex capture immunoassay, 2.5 ug human lymphoblastoid control extract
# [14] = target: human fragile X mental retardation protein (FMRP) (human) (UniProt Q06787); assay: Luminex capture immunoassay, 1.25 ug human lymphoblastoid control extract
substance,measurement,setting,value
anti-PrP mAb 3F4 (antibody),phycoerythrin fluorescence (MFI),[1],7 MFI and 8 MFI
same,phycoerythrin fluorescence (MFI),[2],11 MFI and 10 MFI
same,phycoerythrin fluorescence (MFI),[3],17.5 MFI and 18 MFI
same,phycoerythrin fluorescence (MFI),[4],36 MFI and 39.5 MFI
same,phycoerythrin fluorescence (MFI),[5],51 MFI and 49 MFI
same,phycoerythrin fluorescence (MFI),[6],7 MFI and 6 MFI
same,phycoerythrin fluorescence (MFI),[7],7 MFI and 5 MFI
same,phycoerythrin fluorescence (MFI),[8],5 MFI
same,phycoerythrin fluorescence (MFI),[9],5 MFI and 4 MFI
same,phycoerythrin fluorescence (MFI),[10],5 MFI and 6 MFI
same,phycoerythrin fluorescence (MFI),[11],5 MFI and 6 MFI
same,phycoerythrin fluorescence (MFI),[12],6 MFI
same,phycoerythrin fluorescence (MFI),[13],6 MFI
same,phycoerythrin fluorescence (MFI),[14],5 MFI
